Assay results as given in patent publication US20070185028A1, “Compositions and methods for treatment of protein misfolding and protein aggregation diseases” (priority 2004, published 2007).

Legend:
Type in all cases: biochemical
amyloid beta (1-42) = amyloid beta (1-42) (Homo sapiens, UniProt P05067); assay: Cu+++-induced aggregation of amyloid beta (1-42), light scattering 360 nm; conditions: 100 mM Cu+++
Method: In vitro assays were also performed to measure the ability of the human αB crystallin derived peptides identified in Example 1 to inhibit aggregation of Cu^+++-induced amyloid beta (1-42) aggregation. Aggregation assays were performed using routine procedures, in the presence or absence of a synthesized peptide identified in Example 1, in the presence of 100 mM Cu^+++. Aggregation was measured spectrophotometrically as light scattering at a wavelength of 360 nm. Aggregated amyloid-beta was assigned a value of 100% aggregation and used to normalize aggregation in the presence of synthesize peptides.
Aggregation was measured spectrophotometrically as light scattering at a wavelength of 360 nm. Aggregated amyloid-beta was assigned a value of 100% aggregation and used to normalize aggregation in the presence of synthesize peptides. Aggregation was plotted as a bar graph with the standard error for duplicate experiments. The 1 st vertical bar is the scattering measured for aggregated amyloid-beta (100% aggregation) in the presence of 100 mM Cu^+++. The 2nd-4th vertical bars is the scattering from amyloid-beta in the presence of wild type recombinant human αB crystallin. The 5th-13th vertical bars are the scattering of amyloid-beta in the presence of the synthetic peptides, DRFSVNLDVKHFS or LTITSSLSDGV or HGKHEERQDE at selected concentrations. A prefix of 10× represents a 10:1 molar concentration of amyloid-beta to either wild type αB crystallin or its peptides. A prefix of 1× represents a 1:1 molar concentration of amyloid-beta to either wt αB crystallin or its peptides. A prefix of 0.1× represents a 1:10 molar concentration of amyloid-beta to either wt αB crystallin or its peptides.

βH crystallin = assay: Chaperone assay, thermal aggregation of βH crystallin at 50° C.; conditions: 50:1 molar ratio of peptide:βH crystallin, sixty minutes, 340 nm
Method: (§1) The chaperone activity of the peptides was measured as their ability to protect against the thermal aggregation of three chaperone target proteins βH crystallin, ADH and CS in chaperone assays performed at 50° C. (FIG. 19). A non-interactive αB crystallin sequence 111HGKHEERQDE120 was used as the negative control in the chaperone assays (FIG. 19). Based on near and far UVCD, the three target proteins unfolded in the order: CS>>>ADH>>βH crystallin when they were heated at 50° C. for sixty minutes (FIGS. 15 and 16). The thermal aggregation of βH crystallin, ADH and CS was measured as light scattering at λ=340 nm in the presence and absence of each peptide. The chaperone activity of each peptide was calculated as percent protection in which the aggregation of each target protein in the absence of any peptides was set at 0% protection (FIG. 19). The interactive peptides […] and 131LTITSSLSDGV141 were effective inhibitors of aggregation of all three chaperone target proteins.
(§2) A (top left): thermal aggregation of chaperone target proteins βH crystallin, ADH and CS in the absence of peptides was measured as light scattering at λ=340 nm. Each target protein was heated at 50° C. for sixty minutes in the absence or presence of one of the peptides. […] The chaperone activity of each peptide was calculated as percent protection in which the aggregation of each target protein in the absence of any peptides was set at 0% protection. The ability of the 73DRFSVNLDVKHFS85, 131LTITSSLSDGV141 and 111HGKHEERQDE120 to protect against the thermal aggregation of βH crystallin (B: top right), ADH (C: bottom left) and CS (D: bottom right) were tested in vitro (vertical bars). […] A 10:1 molar ratio of peptide:target protein was sufficient in conferring significant protection against the aggregation of CS by 73DRFSVNLDVKHFS85 and 131LTITSSLSDGV141.

ADH = ADH (Equus caballus, UniProt P00327); assay: Chaperone assay, thermal aggregation of ADH at 50° C.; conditions: 50:1 molar ratio of peptide:ADH, sixty minutes, 340 nm
Method: as §1, §2

β2-microglobulin (β2m) = target: T1, β2-microglobulin (β2m) (Homo sapiens, UniProt P61769); assay: β2-microglobulin fibrillation ThT assay; conditions: five αB crystallin peptides and control
T1 construct: purchased MP Biomedical
Method: Addition of 5.8 μM αB crystallin peptides, ST, DR, LT, HG, and ER decreased the ThT fluorescence of β2m by 40-64%. When the concentration of the αB crystallin peptides was increased to 29 μM and 145 μM, no further decrease in ThT fluorescence was observed. The negative control peptide AT1 had no effect on β2m fibrillation even at a concentration as high as 290 μM. All five αB crystallin peptides inhibited β2m fibrillation at sub-stoichometric and stoichometric concentrations (5.8 μM and 29 μM).
The Thioflavin T (ThT) fluorescence of β2m in the presence of varying concentrations of αB crystallin peptides and controls was measured. […] When the concentration of the peptides was increased to 29 μM (1:1::peptide:β2m), the αB crystallin peptides decreased the ThT fluorescence by 35-65%. When the concentration of the peptides was increased further to 145 μM ([…]), the αB crystallin peptides decreased the ThT fluorescence by 13-27%. […] The formation and inhibition of β2-microglobulin fibrils was verified microscopically.
β2-microglobulin fibrillation ThT assays were performed as described previously. Raman et al., Biochem J 392:573-81, 2005; Ivanova et al., Proc Natl Acad Sci USA 101:10584-9, 2004. Peptides were dissolved to 2 mM in 0.25% DMSO and diluted accordingly, while β2-microglobulin was dissolved in 25 mM sodium acetate, 25 mM sodium phosphate, pH 2.4. For the 5:1::peptide:β2-microglobulin assay, 10 μL of 430 μM peptide was mixed with 10 μL of 86 μM β2-microglobulin, 7 μl of 25 mM sodium acetate, 25 mM sodium phosphate, pH 2.4 and 3 μL of 1 mM ThT. For the 1:1::peptide:β2-microglobulin assay, 10 μL of 86 μM peptide was mixed with 10 μL of 86 μM (2-microglobulin, 7 μl of 25 mM sodium acetate, 25 mM sodium phosphate, pH 2.4 and 3 μL of 1 mM ThT. For the 1:5::peptide:β2-microglobulin assay, 10 μL of 17.2 μM peptide was mixed with 10 μL of 86 μM β2-microglobulin, 7 μl of 25 mM sodium acetate, 25 mM sodium phosphate, pH 2.4 and 3 μL of 1 mM ThT. ThT fluorescence was measured using a Perkin Elmer Victor^3 V plate reader. Assays were performed in 384-well fluorescence plates in duplicates or triplicates. Samples were incubated at 37° C. ThT fluorescence was measured continuously for 180 minutes. The effect of the peptides and APS was calculated as percentage fibril formation relative to β2-microglobulin alone (100%) at the end of 180 minutes.

[1] = 1:1 and 1:10 molar ratio of amyloid-beta to peptide
[2] = 10:1 molar ratio of amyloid-beta to peptide

T1 sequence (P61769 21-119): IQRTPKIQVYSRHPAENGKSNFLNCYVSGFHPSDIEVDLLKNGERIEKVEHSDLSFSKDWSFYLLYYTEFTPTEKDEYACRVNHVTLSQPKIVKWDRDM
Chain of ADH (P00327 whole entry): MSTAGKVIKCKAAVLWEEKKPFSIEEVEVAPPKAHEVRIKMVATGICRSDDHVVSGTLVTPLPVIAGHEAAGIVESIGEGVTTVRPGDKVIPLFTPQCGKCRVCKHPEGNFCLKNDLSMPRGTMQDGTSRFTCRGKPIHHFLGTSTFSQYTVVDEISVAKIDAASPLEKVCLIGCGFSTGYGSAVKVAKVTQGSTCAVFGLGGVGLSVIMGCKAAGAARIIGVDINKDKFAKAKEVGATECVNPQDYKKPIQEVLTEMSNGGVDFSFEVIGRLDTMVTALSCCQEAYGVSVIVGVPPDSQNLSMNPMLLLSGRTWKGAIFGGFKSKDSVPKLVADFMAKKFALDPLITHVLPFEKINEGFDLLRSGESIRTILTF

Sequence	prevention of Cu+++-induced aggregation of amyloid-beta (amyloid beta (1-42); [1])	prevention of Cu+++-induced aggregation of amyloid-beta (amyloid beta (1-42); [2])	percent protection against thermal aggregation of βH crystallin (βH crystallin)	percent protection against thermal aggregation of ADH (ADH)	effect on β2-microglobulin fibril formation, overall (β2-microglobulin (β2m))
DRFSVNLDVKHFS	equally effective	less effective	approximately 30%	approximately 30%	–
HGKHEERQDE	equally effective	less effective	No protection	No protection	most effective inhibitors
LTITSSLSSDGV	–	–	–	–	most effective inhibitors
